Data from US20150064731A1 (PROMEGA, published 2015).

Biological target: the molecule itself
Assay: gel filtration chromatography (Superdex 200 5/150 GL) of the purified protein; self-association
Description: Gel filtration analysis was used to verify the expected molecular weight of the purified OgLuc proteins based on the theoretical values and consequently to determine their oligomeric state. A comparison between the relative hydrodynamic volume of the OgLuc variants C1+A4E and 9B8 was made by gel filtration chromatography. For this analysis, the nucleotide sequence for the OgLuc variants, C1+A4E and 9B8, were cloned into a HQ-Tagged Flexi® Vector (Promega Corp.) to create a HQHQHQ (SEQ ID NO: 580) N-terminally tagged protein that was overexpressed in E. coli KRX cells. The overexpressed proteins were purified using the HisLink™ Protein Purification System (Promega Corp.) according to manufacturer's instructions. Samples of each individual standard and sample protein were analyzed by gel filtration chromatography, which was performed at 24° C. on an Agilent 1200 HPLC, using a Superdex 200 5/150 GL column (GE Healthcare) with a flow rate of 0.25 mL/min (FIGS. 43A-B). The mobile phase (i.e., running buffer) consisted of 50 mM Tris and 150 mM NaCl, pH 7.5. Protein elution was monitored at 214 and 280 nm. A standard calibration curve was generated using: 1) Ovalbumin, 43 kDa (GE Healthcare), 2) Carbonic Anhydrase, 29 kDa (Sigma) and 3) Myoglobin, 17 kDa (Horse Heart, Sigma). The molecular weights of the purified proteins were calculated directly from the calibration curve.

B1: OgLuc variant 9B8, HQHQHQ N-terminally tagged (enzyme)
chain: HQHQHQFTLEDFVGDWRQTAGYNLDQVLEQGGLSSLFQKLGVSVTPIQKIVLSGENGLKIDIHVIIPYEGLSGYQMGQIEKIFKVVYPVDDHHFKVILHYGTLVIDGVTPNMIDYFGRPYEGIAVFDGKKITVTGTLWNGNKIIDERLINPDGSLLFRVTINGVTGWRLCERILA
notes: Overexpressed in E. coli KRX and purified with the HisLink Protein Purification System for gel filtration
B1: no binding.
